In the experiment the target is Aβ extracted from AD brain (human (endogenous in AD brain)). Kind of experiment: immunoprecipitation and SDS-PAGE Western blot.

Stoichiometry N data for one substance are collected here from paper PMC4222117.

As a reminder, the stoichiometry N is the number of molecules, sites or subunits per partner or assembly. As for Aβ extracted from AD brain (peptide), the stoichiometry N was found to be 2.
